Consider 3 molecules from patent publication US20150329644A1 (BRIGHAM AND WOMEN S HOSPITAL, published 2015).

In assay [1] the target is Endogenous LSD1 (HeLa cells) (human, UniProt O60341 1-852). In words: tandem affinity purification, immunoblot with anti-LSD1. On the technique in general: A western blot detects proteins with antibodies after separation by electrophoresis.
Assay [2] concerns the target T1, Endogenous LSD2 (human cells) (human, UniProt Q8NB78 1-822, limits assumed).
T1 construct: also called KDM1b; AOF1
T1 sequence (looked up): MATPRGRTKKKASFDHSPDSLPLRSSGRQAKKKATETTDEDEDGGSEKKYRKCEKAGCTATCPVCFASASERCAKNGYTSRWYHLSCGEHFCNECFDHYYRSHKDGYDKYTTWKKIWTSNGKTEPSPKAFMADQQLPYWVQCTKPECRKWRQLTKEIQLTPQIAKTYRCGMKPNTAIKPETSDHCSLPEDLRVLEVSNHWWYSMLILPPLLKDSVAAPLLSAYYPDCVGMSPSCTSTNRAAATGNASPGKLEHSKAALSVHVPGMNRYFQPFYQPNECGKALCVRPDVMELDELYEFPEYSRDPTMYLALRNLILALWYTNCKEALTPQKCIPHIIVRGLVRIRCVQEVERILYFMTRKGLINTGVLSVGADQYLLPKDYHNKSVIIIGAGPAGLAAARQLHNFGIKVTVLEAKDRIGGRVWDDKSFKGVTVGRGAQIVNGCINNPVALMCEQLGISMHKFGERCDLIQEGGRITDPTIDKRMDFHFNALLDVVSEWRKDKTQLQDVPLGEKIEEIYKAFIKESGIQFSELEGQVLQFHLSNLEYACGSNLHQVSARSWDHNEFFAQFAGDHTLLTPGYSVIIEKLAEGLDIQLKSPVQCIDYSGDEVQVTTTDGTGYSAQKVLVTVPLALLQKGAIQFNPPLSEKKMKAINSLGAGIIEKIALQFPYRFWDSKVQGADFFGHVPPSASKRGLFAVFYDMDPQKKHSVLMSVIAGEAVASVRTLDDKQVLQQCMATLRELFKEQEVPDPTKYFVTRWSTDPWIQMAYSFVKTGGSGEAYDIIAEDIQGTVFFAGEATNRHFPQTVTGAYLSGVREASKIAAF
In words: tandem affinity purification from HeLa, immunoblot with anti-LSD2.

Assay [3] has as its target FLAG-HA tagged LSD1 bait protein (stably expressed in HeLa, tandem affinity purified) (human, UniProt O60341 1-852). In words: tandem affinity purification, immunoblot with anti-NPAC.
For assay [4], the target named is T2, Human LSD2 (residues 51-822) with N-terminal extra residues GPGS, as used for co-crystallization (human, UniProt Q8NB78 51-822).
T2 construct: range 51-822; Construct of the LSD2-NPAC (PDB 4GUT) and LSD2-NPAC-H3K4M (PDB 4GUS, 4GUR) co-crystals; also called KDM1b; AOF1
T2 sequence: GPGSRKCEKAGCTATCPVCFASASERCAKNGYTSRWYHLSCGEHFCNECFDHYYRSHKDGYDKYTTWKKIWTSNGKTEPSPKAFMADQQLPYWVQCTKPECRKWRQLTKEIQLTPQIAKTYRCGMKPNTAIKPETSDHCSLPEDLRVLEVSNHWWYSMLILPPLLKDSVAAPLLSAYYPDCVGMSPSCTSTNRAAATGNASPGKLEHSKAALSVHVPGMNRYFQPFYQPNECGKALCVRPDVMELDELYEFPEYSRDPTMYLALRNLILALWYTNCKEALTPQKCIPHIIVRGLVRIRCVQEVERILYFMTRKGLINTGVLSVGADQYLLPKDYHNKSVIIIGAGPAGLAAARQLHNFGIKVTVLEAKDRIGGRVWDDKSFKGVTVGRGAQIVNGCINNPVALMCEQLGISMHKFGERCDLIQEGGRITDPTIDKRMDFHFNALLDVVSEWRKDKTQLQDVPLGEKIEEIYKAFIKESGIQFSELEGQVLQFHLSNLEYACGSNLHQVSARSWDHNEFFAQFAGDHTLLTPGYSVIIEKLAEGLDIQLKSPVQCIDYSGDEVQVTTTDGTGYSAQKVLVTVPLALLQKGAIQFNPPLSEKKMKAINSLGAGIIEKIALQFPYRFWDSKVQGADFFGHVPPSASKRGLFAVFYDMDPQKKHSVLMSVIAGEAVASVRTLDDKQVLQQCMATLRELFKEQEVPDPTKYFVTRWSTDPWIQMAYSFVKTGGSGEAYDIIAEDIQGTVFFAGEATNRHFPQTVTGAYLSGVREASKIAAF
In words: co-crystal structures of LSD2 with the NPAC linker region (residues 152-268).
Procedure: Crystallization and Data Collection. All crystals were grown using the hanging-drop vapor diffusion method. […] All crystals were examined on X8 Proteum system (Bruker AXS) and data sets were collected on beamline BL17U at Shanghai Synchrotron Radiation Facility (Shanghai, China).

B1: FLAG-HA tagged NPAC (N-terminal FLAG-HA, stably expressed in HeLa, tandem affinity purified) (other)
chain: MAAVSLRLGDLVWGKLGRYPPWPGKIVNPPKDLKKPRGKKCFFVKFFGTEDHAWIKVEQLKPYHAHKEEMIKINKGKRFQQAVDAVEEFLRRAKGKDQTSSHNSSDDKNRRNSSEERSRPNSGDEKRKLSLSEGKVKKNMGEGKKRVSSGSSERGSKSPLKRAQEQSPRKRGRPPKDEKDLTIPESSTVKGMMAGPMAAFKWQPTASEPVKDADPHFHHFLLSQTEKPAVCYQAITKKLKICEEETGSTSIQAADSTAVNGSITPTDKKIGFLGLGLMGSGIVSNLLKMGHTVTVWNRTAEKCDLFIQEGARLGRTPAEVVSTCDITFACVSDPKAAKDLVLGPSGVLQGIRPGKCYVDMSTVDADTVTELAQVIVSRGGRFLEAPVSGNQQLSNDGMLVILAAGDRGLYEDCSSCFQAMGKTSFFLGEVGNAAKMMLIVNMVQGSFMATIAEGLTLAHVTGQSQQTLLDILNQGQLASIFLDQKCQNILQGNFKPDFYLKYIQKDLRLAIALGDAVNHPTPMAAAANEVYKRAKALDQSDNDMSAVYRAYIH
notes: Bait of the purified NPAC complex; also called FLAG:HA-NPAC; NPAC complex; not shown: N-terminal FLAG-HA tag from pOZ-N vector
In the case of B1, the binding result in assay [1] is given as “no binding”; in assay [2], “binds”.

B2: Endogenous NPAC (human cells) (other)
chain: B1 chain
notes: Endogenous protein of HeLa cells, detected by immunoblot in purified complexes; also called GLYR1; NP60
For the molecule B2, the binding result in assay [3] is listed as “no binding”.

B3: NPAC linker region (residues 152-268), as used for co-crystallization (other)
chain: SERGSKSPLKRAQEQSPRKRGRPPKDEKDLTIPESSTVKGMMAGPMAAFKWQPTASEPVKDADPHFHHFLLSQTEKPAVCYQAITKKLKICEEETGSTSIQAADSTAVNGSITPTDK
notes: Expressed with His6 and GST tags that were removed by 3C protease
For the molecule B3, the binding result in assay [4] is “binds”.
